In patent EP4388012A1 (dated 2024):
Like-named read-outs stand apart in the source and are kept apart here.

B1: 3H4, murine HLA-E-VL9-specific IgM monoclonal antibody (antibody, V domains shown)
VH: EVQLQESGPELVKPGASVKIPCKASGYTFTDYNMDWVKQSHGKSLEWIGDINPNNGGTIYNQKFKGKATLTVDKSSSTAYMELRSLTSEDTAVYYCARPDYYGSSYGWYFDVWGTGTTVTVSS
VL: DIVITQSPSSMYASLGERVTITCKASQDINSYLSWFQQKPGKSPKTLIYRANRLVDGVPSRFSGSGSGQDYSLTISSLEYEDMGIYYCLQYDEFPLTFGAGTKLELK
notes: also called mAb 3H4; 3H4 IgM
B2: 3H4 as a recombinant human IgG1 (unoptimized, wild-type 3H4 on a human IgG1 backbone, 3H4 Gwt) (antibody, V domains shown)
VH: B1 VH
VL: B1 VL
notes: also called 3H4 IgG; wild-type 3H4 IgG

What was measured:
[1] = target: T1, soluble HLA-E-VL9 complex (HLA-E*01:03 heavy chain refolded with b2M and synthetic VL9 peptide) (human)
[2] = target: T1, soluble HLA-E-VL9 complex (HLA-E*01:03 …); assay: SPR, antibody immobilized on CM5 chip, soluble HLA-E-VL9 flowed, 1:1 model

| Binder | Kd [1] | Kd [2] |
| --- | --- | --- |
| B1 | 8.1 µM |  |
| B2 |  | 49.8 µM |
